The values below come from patent US20240425555A1, “MUTANT BRD4 POLYPEPTIDES AND METHODS OF USE THEREOF” (Northwestern University, priority 2023, published 2024).

One assay relates to Pol II pausing. The assay is described as follows: total Pol II ChIP-seq upon auxin, JQ1, dBET6 or NVP-2 treatment. In kind it is cell-based, human. The text has this: FIG. 1A illustrates the updated BRD4-IAA7 degron line. The F-box protein AtAFB2 was integrated into the C terminus of the BRD4 locus under the control of an independent promoter. […] These treatment concentrations/durations are relevant to all of FIG. 1. […] The gene list (N=6481) in this analysis is used throughout the study (except for FIGS. 3H-J). FIG. 1D illustrates the estimated Cumulative Density Function (ECDF) of pause release ratios (PRR, reported as log 2 fold change) for auxin treatment vs untreated control. The PRR is the ratio of Pol II occupancy within gene bodies to its occupancy at promoters. A leftward shift of the curve indicates an increase in the frequency and/or duration of promoter-proximal pausing, while a rightward shift indicates reduced pausing and/or more efficient release into gene bodies.
FIGS. 8A-8E. collectively illustrate the differences in Pol II pausing induced by BRD4 depletion and bromodomain inhibition, related to FIG. 1. FIG. 8A illustrates the western blot showing the expression of HA-tagged AtAFB2 and the auxin-induced degradation of V5-tagged BRD4 using anti-tag antibodies. FIG. 8B illustrates the western blot comparing the BRD4 protein expression level and degradation kinetics of the previously published BRD4-AID degron to those of the BRD4-IAA7 degron used in this study 12. Note: in FIGS. 8A and 8B, the BRD4-IAA7 clone used is D4 (Hygromycin selected); it is G3 (Neomycin selected) otherwise in the study. […] FIG. 8E illustrates the track examples of Pol II ChIP-seq signal at the HSPA8 and GAPDH loci upon NVP-2 treatment (2 h) and corresponding heatmaps showing Pol II occupancy profiles and fold change in occupancy vs control upon NVP-2 treatment.
To specifically deplete BRD4 without affecting other BET proteins, we generated an updated BRD4 degron line by modifying the published miniIAA7 degron system (hereafter BRD4-IAA7) to reduce basal degradation seen with AID degron-tagged BRD4^30 (FIGS. 1A and 8A).
DLD1 cells were crosslinked with 15 ml 1% PFA (ThermoFisher, #28908) in PBS on 15 cm plates for 10 minutes at RT and quenched by the addition of 2 ml 2.5M glycine followed by shaking for 5 minutes. Crosslinked cells were collected by scraping. Chromatin sonication was performed for 10 minutes using a Covaris E200 set to 10% duty factor, 200 cycles per burst, and 140 peak intensity power. For endogenous protein ChIP, 10-20% of mouse embryonic fibroblasts (MEF) chromatin (prepared the same way as in DLD1 cells) was added to each sample as a spike-in control. For overexpressed protein ChIP, such as GFP-ChIP, 20 ng spike-in chromatin (Active Motif, #53083) and 2 ug spike-in antibody (Active Motif, #61686) were added to each sample. Immunoprecipitation was carried out at 4° C. overnight using 5ul of Rpb1 (Cell Signaling Technology, #D8L4Y), 5ul of Ser2p (Active Motif, #61984), 10ul of CCNT1 (Cell Signaling Technology, #81464), 10ul of CDK9 (Santa Cruz Biotechnology, #sc-13130 X) antibodies, or 200ul of a cocktail consisting of 50ul of each GFP antibody (DSHB, #GFP-G1, #GFP-12A6, #GFP-12E6, #GFP-8H11). Immune complexes were enriched with Protein G-coupled Dynabeads (Invitrogen, #10004D) at 4° C. for >=4 h, and incubated with proteinase K (Roche, #3115828001) to reverse crosslink at 65° C. overnight. Eluted DNA was purified with the QIAquick PCR Purification Kit (Qiagen, #28106), and libraries were prepared using the KAPA HTP library preparation kit (Roche, #07961901001) for sequencing on the NovaSeq 6000.
Reads were aligned to hg38 with bowtie 1/250. Genes (N=6,481) with pausing site and TES annotation were obtained from a previously published study51. Promoter regions were designated as spanning from 100 bp upstream to 300 bp downstream of the pausing site. Gene body regions were designated as spanning from 300 bp downstream of the pausing site to the TES. FeatureCounts 2.0.152 was used to calculate the total mapped reads from Pol II ChIP-seq at promoters and within gene bodies. […]

In the next assay the target is BRD4 (UniProt O60885+Q38825). Kind of assay: Western blot of BRD4 degradation in BRD4-IAA7 degron line. In kind it is cell-based, human. The note with it: BRD4-IAA7 DLD1 degron line; auxin 500 uM 2 or 3 h; JQ1 1 uM or dBET6 250 nM 3 h.
Assay [1] concerns the target T1, PTEFb (Homo sapiens, UniProt O60563+P50750). The assay is described as follows: GFP IP-MS and GFP IP western blot of GFP-tagged BRD4 constructs. The assay is classed as binding. Conditions: GFP-tagged; for binding to PTEFb (western blot for GFP IP): Dox 2 days.
Assay [2] addresses T1, PTEFb. The assay is described as follows: BRD4 IP / GFP IP competition for PTEFb by C46 or p46. In kind it is binding. On the set-up: endogenous in cells; lysate of unnamed cells for the p46 addition. The text has this: FIGS. 14A-14G. Identification of essential PTEFb binding sites in BRD4's C-terminus. FIG. 14A. Schematic showing the constructs of Dox inducible GFP-tagged BRD4 C terminus mutants with residue length indicated. Western blot of GFP IP for these two mutants upon Dox induction for 2 days showing both mutants can interact with PTEFb. FIG. 14B. […] Auxin treatment serves as a positive control for the loss of endogenous BRD4. FIG. 14C. […] FIG. 14D. […] FIG. 14E. Schematic showing the sequence alignment of the 46 residues in the C terminus of BRD4 and BRDT as well as the alanine scanning strategy to mutate each site for 3 amino acids at one time. FIG. 14F. Comparison of the ability to pull down PTEFb by Bio-p46/Bio-p46* and Biotin-labeled BRDT C terminus 46 residues (Bio-pT46) as well as Biotin-labeled BRD4 C terminus 46 residues with each of the sites mutated to AAA as shown in E (Bio-p1 to p7). FIG. 14G. Western blot of GFP IP showing the amount of PTEFb binding to GFP-tagged BRD4 C terminus fragment of 340 residues (WT) and its mutants with each of the sites mutated to AAA as indicated in E (A-H).
FIGS. 15A-15E. FIG. 15A. Spectral counts for BRD4, CCNT1, and CDK9 from the GFP IP for the GFP-tagged BRD4 C terminus fragment of 340 residues (C) and 46 residues (C46) followed by mass spectrometry. […] Quantitative curves of PTEFb signal intensity from western blot in D against increasing concentration of p46. […]

Assay [3] deals with T1, PTEFb. Kind of assay: Peptide titration: p46 competition in Bio-p46 pull down assay. In kind it is binding. Set-up: endogenous in cells. The text has this:
FIGS. 15A-15E. FIG. 15A. Spectral counts for BRD4, CCNT1, and CDK9 from the GFP IP for the GFP-tagged BRD4 C terminus fragment of 340 residues (C) and 46 residues (C46) followed by mass spectrometry. FIG. 15B. Western blot validation for the mass spectrometry using the remaining GFP IP samples from one of the replicates. FIG. 15C. […] FIG. 15D. […] FIG. 15E. Quantitative curves of PTEFb signal intensity from western blot in D against increasing concentration of p46.
To pull down PTEFb by Biotin-labeled peptide, cells were lysed with Triton X-100 lysis buffer as used for GFP IP. Biotin-labeled peptides were pre-incubated with streptavidin beads at room temperature for 30 min. Conjugated beads were then washed with lysis buffer twice before adding to the cell lysate. Pulldown was carried out at 4° C. by rotating for >=4 h, followed by 5 times wash with lysis buffer. To elute, 4× Laemmli sample buffer was added and boiled for 10 min. For the peptide titration experiment, a series of concentration of p46 was pre-incubated with same amount of cell lysate for 1 h at 4° C. Same amount of Bio-p46 conjugated streptavidin beads were used to pull down PTEFb for >=4 h. PTEFb signal intensity from western blot was determined by Image Lab from Bio-Rad.

T1 sequence (P50750 whole entry): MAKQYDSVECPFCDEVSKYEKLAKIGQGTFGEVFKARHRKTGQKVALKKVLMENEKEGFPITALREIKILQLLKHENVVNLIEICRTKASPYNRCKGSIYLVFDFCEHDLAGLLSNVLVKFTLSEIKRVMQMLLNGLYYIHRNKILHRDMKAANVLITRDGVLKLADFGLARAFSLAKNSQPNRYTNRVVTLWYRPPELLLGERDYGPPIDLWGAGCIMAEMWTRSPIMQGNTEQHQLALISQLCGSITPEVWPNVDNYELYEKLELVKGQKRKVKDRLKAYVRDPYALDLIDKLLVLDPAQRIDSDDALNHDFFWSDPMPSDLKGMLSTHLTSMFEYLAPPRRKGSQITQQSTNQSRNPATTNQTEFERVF
T1 sequence (O60563 whole entry): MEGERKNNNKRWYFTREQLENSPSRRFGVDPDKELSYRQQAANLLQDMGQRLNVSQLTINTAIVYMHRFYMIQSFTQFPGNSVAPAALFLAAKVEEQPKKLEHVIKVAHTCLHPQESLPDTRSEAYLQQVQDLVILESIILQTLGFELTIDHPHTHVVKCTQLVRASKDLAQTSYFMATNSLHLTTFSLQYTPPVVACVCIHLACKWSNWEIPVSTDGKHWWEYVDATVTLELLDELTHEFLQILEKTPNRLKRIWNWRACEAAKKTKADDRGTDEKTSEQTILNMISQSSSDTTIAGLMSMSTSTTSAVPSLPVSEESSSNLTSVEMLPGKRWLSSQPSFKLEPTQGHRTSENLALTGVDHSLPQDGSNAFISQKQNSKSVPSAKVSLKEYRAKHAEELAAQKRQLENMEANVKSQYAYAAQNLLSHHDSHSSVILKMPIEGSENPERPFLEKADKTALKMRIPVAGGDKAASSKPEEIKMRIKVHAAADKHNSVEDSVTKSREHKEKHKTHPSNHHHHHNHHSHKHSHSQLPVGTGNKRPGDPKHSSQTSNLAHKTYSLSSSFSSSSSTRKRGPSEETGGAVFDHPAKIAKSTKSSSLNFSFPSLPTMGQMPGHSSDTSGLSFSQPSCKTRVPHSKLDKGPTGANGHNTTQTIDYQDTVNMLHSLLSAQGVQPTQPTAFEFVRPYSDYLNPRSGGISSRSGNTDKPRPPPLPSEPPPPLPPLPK

With `O=C(O)Cc1c[nH]c2ccccc12` [auxin], the “Pol II pausing (Pol II occupancy profile)” value in the assay with Pol II pausing (BRD4-IAA7 cells, auxin 500 uM, JQ1 1 uM, dBET6 250 nM, 3 h) is listed as “inducing pausing at the majority of Pol II-transcribed genes”. Further, the “BRD4 degradation (western blot)” value at BRD4 is recorded as “rapidly degraded”.
“C46: BRD4 C terminus 46aa (SEQ ID NO: 1) expressed in cells with a GFP tag”: the “interaction with PTEFb (GFP IP-MS)” value with PTEFb [1] (Dox 50 nM 2 days) is on record as “does not impair its interaction with PTEFb”. For the same compound, in the assay with PTEFb [1], the “binding to PTEFb (western blot for GFP IP)” value is given as “bind to PTEFb strongly”. For the same compound, in the assay with PTEFb [2] (C46 expressed in BRD4-V5-IAA7 degron line), the “competition with endogenous BRD4 for PTEFb (endogenous BRD4 IP)” value is reported as “competes with the endogenous BRD4 for PTEFb”.
With “C85: BRD4 C terminus 85aa expressed in cells with a GFP tag”, in the assay with PTEFb [1], the “binding to PTEFb (western blot for GFP IP)” value is on record as “bind to PTEFb strongly”.
For the compound NVP2, the “Pol II pausing genome-wide upon CDK9 inhibition” value in the assay with Pol II pausing (DLD1 cells, NVP-2 treatment 2 h) is recorded as “induced strong Pol II pausing genome-wide”.
For “p46: synthetic peptide of the BRD4 C terminus 46 residues”, the “binding of PTEFb to Bio-p46” value in the assay with PTEFb [3] (cell lysate pre-incubated with increasing concentration of p46) is “decreased binding of PTEFb”. Further, the “"IC50"” value with PTEFb [3] (competition between free and biotin-labelled peptides, in vitro) is recorded as “hundred nanomole level”. Also, the “amount of PTEFb bound to endogenous BRD4 or overexpressed GFP-tagged C46” value in the assay with PTEFb [2] (p46 added to cell lysate prior to IP) is “significantly decreased”.
